Test results taken from article PMC5689619.

Tests used:
GST-RAB40C = GST-RAB40C (UniProt Q96S21)
GST-H-Ras = GST-H-Ras (UniProt P01112)

| Kcat/KM ratio (catalytic efficiency) of GAP-stimulated GTP hydrolysis, release of inorganic phosphate (GST-RAB40C) | Kcat/KM ratio (catalytic efficiency) of GAP-stimulated GTP hydrolysis, release of inorganic phosphate (GST-H-Ras) | Substance |
| --- | --- | --- |
| 114 | 229 | GST-GAP (DAB2IP GAP domain) (domain or fragment) |
| 66 | 102 | GST-GAP R385L (DAB2IP GAP domain, catalytically defective mutant) (domain or fragment) |
